Reference: the supplement of paper PMC9112550, “Optimization of the antimicrobial peptide Bac7 by deep mutational scanning” (BMC Biology, 2022)

These sequences were tested on Escherichia coli TOP10 (assay: shrunken log2 fold change of peptide-encoding DNA abundance (4.5 h post-induction vs induction); higher = less antimicrobial activity (less host growth inhibition)). Conditions: time post-induction: 4.5 h; library: site-saturation at positions 5, 18, 19, 20.
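Also: peptides expressed intracellularly from a pBAD plasmid library in pooled LB shake-flask culture, induced with 0.3% L-arabinose, DNA abundance read by NGS, three biological replicates, DESeq2 with apeglm shrinkage.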

Row | Sequence | shrunken log2 fold change
1 | RRIRHRPPRLPRPRPRPAEYPRP | 0.034
2 | RRIRFRPPRLPRPRPRPYHNPRP | -0.882
3 | RRIRVRPPRLPRPRPRPTMCPRP | 0.15
4 | RRIRERPPRLPRPRPRPVLLPRP | -0.388
5 | RRIRERPPRLPRPRPRPQDNPRP | -0.0327
6 | RRIRIRPPRLPRPRPRPSEHPRP | -0.36
7 | RRIRHRPPRLPRPRPRPCLKPRP | -0.16
8 | RRIRQRPPRLPRPRPRPQPAPRP | 0.218
9 | RRIRCRPPRLPRPRPRPGQGPRP | 0.43
10 | RRIRTRPPRLPRPRPRPVYQPRP | -0.0843
11 | RRIRARPPRLPRPRPRPTQKPRP | -0.0406
12 | RRIRPRPPRLPRPRPRPYGAPRP | -0.306
13 | RRIRSRPPRLPRPRPRPETDPRP | 0.392
14 | RRIRQRPPRLPRPRPRPRVQPRP | 0.527
15 | RRIRDRPPRLPRPRPRPKWHPRP | 0.179
16 | RRIRERPPRLPRPRPRPAMHPRP | 0.0193
17 | RRIRDRPPRLPRPRPRPLGRPRP | 0.0897
18 | RRIRHRPPRLPRPRPRPLHMPRP | -0.0732
19 | RRIRLRPPRLPRPRPRPWSAPRP | 0.539
20 | RRIRERPPRLPRPRPRPKWMPRP | -0.0884

Row | Sequence | shrunken log2 fold change
21 | RRIRHRPPRLPRPRPRPRCCPRP | -0.079
22 | RRIRARPPRLPRPRPRPVMAPRP | 0.567
23 | RRIRTRPPRLPRPRPRPWACPRP | -0.151
24 | RRIRIRPPRLPRPRPRPHQDPRP | -0.122
25 | RRIRHRPPRLPRPRPRPIIWPRP | -0.145
26 | RRIRNRPPRLPRPRPRPQINPRP | -0.181
27 | RRIRNRPPRLPRPRPRPIMIPRP | -0.363
28 | RRIRWRPPRLPRPRPRPDSNPRP | -0.189
29 | RRIRPRPPRLPRPRPRPPRAPRP | 0.591
30 | RRIRKRPPRLPRPRPRPPRRPRP | 1.04
31 | RRIRYRPPRLPRPRPRPMNMPRP | -0.139
32 | RRIRLRPPRLPRPRPRPMDQPRP | -0.0503
33 | RRIRFRPPRLPRPRPRPHEDPRP | 0.0846
34 | RRIRHRPPRLPRPRPRPDGIPRP | -0.0529
35 | RRIRTRPPRLPRPRPRPCPHPRP | -0.0429
36 | RRIRTRPPRLPRPRPRPIGTPRP | 0.0179
37 | RRIRFRPPRLPRPRPRPRGHPRP | 0.348
38 | RRIRHRPPRLPRPRPRPVIFPRP | -0.395
39 | RRIRHRPPRLPRPRPRPPDDPRP | 0.256
40 | RRIRVRPPRLPRPRPRPNCPPRP | -0.0515

Row | Sequence | shrunken log2 fold change
41 | RRIRCRPPRLPRPRPRPKYLPRP | -0.34
42 | RRIRIRPPRLPRPRPRPAHWPRP | 0.396
43 | RRIRNRPPRLPRPRPRPQQYPRP | 0.017
44 | RRIRTRPPRLPRPRPRPGGKPRP | -0.215
45 | RRIRKRPPRLPRPRPRPVHSPRP | 0.034
46 | RRIRFRPPRLPRPRPRPVCLPRP | -0.121
47 | RRIRWRPPRLPRPRPRPRYKPRP | -0.104
48 | RRIRKRPPRLPRPRPRPGCSPRP | 0.289
49 | RRIRIRPPRLPRPRPRPQHDPRP | -0.0884
50 | RRIRLRPPRLPRPRPRPAYDPRP | -0.00456
51 | RRIRWRPPRLPRPRPRPAEEPRP | 3.62
52 | RRIRGRPPRLPRPRPRPYATPRP | 1.81
53 | RRIRHRPPRLPRPRPRPQPLPRP | -0.0863
54 | RRIRKRPPRLPRPRPRPYCFPRP | -0.258
55 | RRIRRRPPRLPRPRPRPTCNPRP | 0.026
56 | RRIRERPPRLPRPRPRPQVWPRP | -0.0702
57 | RRIRKRPPRLPRPRPRPNVHPRP | 0.273
58 | RRIRPRPPRLPRPRPRPMMTPRP | -0.146
59 | RRIRFRPPRLPRPRPRPATEPRP | 0.0616
60 | RRIRNRPPRLPRPRPRPQESPRP | -0.342
